{"source": "patent US5534410", "about": "“TATA-binding protein associated factors drug screens” (The Regents of the University of California, dated 1996)", "key": {"[1]": {"biological_target": "Sp1, over-expressed and purified from HeLa cells infected with a vaccinia virus expression vector (Homo sapiens (Human), UniProt P08047)", "experiment": "in vitro binding to DNA-bound Sp1 resin"}, "[2]": {"biological_target": "acidic activation domain of GAL4 (residues 768-881) (Saccharomyces cerevisiae (strain ATCC …, UniProt P04386))", "experiment": "yeast two-hybrid"}, "[3]": {"biological_target": "T1, Drosophila TATA-binding protein (dTBP) (Drosophila, UniProt P20227)", "T1 sequence": "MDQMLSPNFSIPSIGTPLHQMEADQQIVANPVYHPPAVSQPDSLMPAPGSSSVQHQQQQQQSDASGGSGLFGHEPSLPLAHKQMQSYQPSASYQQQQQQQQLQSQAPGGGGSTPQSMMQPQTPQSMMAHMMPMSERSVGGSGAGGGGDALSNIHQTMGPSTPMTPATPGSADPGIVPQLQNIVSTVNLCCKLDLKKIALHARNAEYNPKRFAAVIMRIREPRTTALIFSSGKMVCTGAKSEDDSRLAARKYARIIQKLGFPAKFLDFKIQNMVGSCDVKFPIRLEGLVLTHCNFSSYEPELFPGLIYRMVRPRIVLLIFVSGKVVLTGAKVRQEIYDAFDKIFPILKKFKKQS", "experiment": "coimmunoprecipitation of in vitro expressed proteins"}, "[4]": {"biological_target": "control resin that lacked Sp1 (streptavidin-agarose with biotinylated oligonucleotides) (Streptomyces avidinii, UniProt P22629)", "experiment": "35S-TAF110 on control DNA affinity resin, SDS-PAGE, autoradiography"}, "[5]": {"biological_target": "T2, GST-NTF-1 fusion protein containing the N-terminal 284 amino acids of NTF-1 (Drosophila, UniProt P13002)", "T2 sequence": "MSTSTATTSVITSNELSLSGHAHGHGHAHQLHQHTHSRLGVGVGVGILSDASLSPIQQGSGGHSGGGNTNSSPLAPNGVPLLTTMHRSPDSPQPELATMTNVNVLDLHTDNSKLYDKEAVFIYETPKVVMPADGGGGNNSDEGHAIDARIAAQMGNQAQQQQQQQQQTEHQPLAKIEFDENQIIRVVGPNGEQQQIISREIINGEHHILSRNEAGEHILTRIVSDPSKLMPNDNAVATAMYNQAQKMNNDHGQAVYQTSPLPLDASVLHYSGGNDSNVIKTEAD", "experiment": "GST-NTF-1 fusion binding assay"}, "radiolabeled nTBP": {"biological_target": "radiolabeled nTBP (Homo sapiens (Human), UniProt P20226)", "experiment": "Far Western with radiolabeled probe"}, "[6]": {"biological_target": "human TATA-binding protein (hTBP) (human, UniProt P20226)", "experiment": "Far Western of immunoprecipitated hTFIID complex with 35S-labeled hTBP"}}}
{"binder": "TAF110 deletion mutant 1-137 (other) MNTSQTAAGNRITFTSQPLPNGTISIAGNPGAVISTAQLPNTTTIKTIQAGIGGQHQGLQQVHHVQQQQQSQQQQQQQQQTQSAGQPLLNSMLPAGVVVGMRQQAPSQQQQKNVPTNPLSRVVINSHMAGVRPQSPS", "values": [{"measurement": "binding result", "setting": "[1]", "result": "no binding"}]}
{"binder": "G4-110 (fl): full-length TAF110 fused to the DNA binding domain of GAL4, G4(1-147) (other) MNTSQTAAGNRITFTSQPLPNGTISIAGNPGAVISTAQLPNTTTIKTIQAGIGGQHQGLQQVHHVQQQQQSQQQQQQQQQTQSAGQPLLNSMLPAGVVVGMRQQAPSQQQQKNVPTNPLSRVVINSHMAGVRPQSPSITLSTLNTGQTPALLVKTDNGFQLLRVGTTTGPPTVTQTITNTSNNSNTTSTTNHPTTTQIRLQTVPAAASMTNTTATSNIIVNSVASSGYANSSQPPHLTQLNAQAPQLPQITQIQTIPAQQSQQQQVNNVSSAGGTATAVSSTTAATTTQQGNTKEKCRKFLANLIELSTREPKPVEKNVRTLIQELVNANVEPEEFCDRLERLLNASPQPCLIGFLKKSLPLLRQALYTKELVIEGIKPPPQHVLGLAGLSQQLPKIQAQIRPIGPSQTTTIGQTQVRMITPNALGTPRPTIGHTTISKQPPNIRLPTAPRLVNTGGIRTQIPSLQVPGQANIVQIRGPQHAQLQRTGSVQIRATTRPPNSVPTANKLTAVKVGQTQIKAITPSLHPPSLAAISGGPPPTPTLSVLSTLNSASTTTLPIPSLPTVHLPPEALRAREQMQNSLNHNSNHFDAKLVEIKAPSLHPPHMERINASLTPIGAKTMARPPPAINKAIGKKKRDAMEMDAKLNTSSGGAASAANSFFQQSSMSSMYGDDDINDVAAMGGVNLAEESQRILGCTENIGTQIRSCKDEVFLNLPSLQARIRAITSEAGLDEPSQDVAVLISHACQERLKNIVEKLAVIAEHRIDVIKLDPRYEPAKDVRGQIKFLEELDKAEQKRHEELEREMLLRAAKSRSRVEDPEQAKMKARAKEMQRAEMEELRQRDANLTALQAIGPRKKLKLDGETVSSGAGSSGGGVLSSSGSAPTTLRPRIKRVNLRDMLFYMEQEREFCRSSMLFKTYLK", "values": [{"measurement": "binding result", "setting": "[2]", "result": "no binding"}]}
{"binder": "Drosophila TAF110 (dTAFII110), full-length (other) MNTSQTAAGNRITFTSQPLPNGTISIAGNPGAVISTAQLPNTTTIKTIQAGIGGQHQGLQQVHHVQQQQQSQQQQQQQQQTQSAGQPLLNSMLPAGVVVGMRQQAPSQQQQKNVPTNPLSRVVINSHMAGVRPQSPSITLSTLNTGQTPALLVKTDNGFQLLRVGTTTGPPTVTQTITNTSNNSNTTSTTNHPTTTQIRLQTVPAAASMTNTTATSNIIVNSVASSGYANSSQPPHLTQLNAQAPQLPQITQIQTIPAQQSQQQQVNNVSSAGGTATAVSSTTAATTTQQGNTKEKCRKFLANLIELSTREPKPVEKNVRTLIQELVNANVEPEEFCDRLERLLNASPQPCLIGFLKKSLPLLRQALYTKELVIEGIKPPPQHVLGLAGLSQQLPKIQAQIRPIGPSQTTTIGQTQVRMITPNALGTPRPTIGHTTISKQPPNIRLPTAPRLVNTGGIRTQIPSLQVPGQANIVQIRGPQHAQLQRTGSVQIRATTRPPNSVPTANKLTAVKVGQTQIKAITPSLHPPSLAAISGGPPPTPTLSVLSTLNSASTTTLPIPSLPTVHLPPEALRAREQMQNSLNHNSNHFDAKLVEIKAPSLHPPHMERINASLTPIGAKTMARPPPAINKAIGKKKRDAMEMDAKLNTSSGGAASAANSFFQQSSMSSMYGDDDINDVAAMGGVNLAEESQRILGCTENIGTQIRSCKDEVFLNLPSLQARIRAITSEAGLDEPSQDVAVLISHACQERLKNIVEKLAVIAEHRIDVIKLDPRYEPAKDVRGQIKFLEELDKAEQKRHEELEREMLLRAAKSRSRVEDPEQAKMKARAKEMQRAEMEELRQRDANLTALQAIGPRKKLKLDGETVSSGAGSSGGGVLSSSGSAPTTLRPRIKRVNLRDMLFYMEQEREFCRSSMLFKTYLK", "values": [{"measurement": "binding result", "setting": "[3]", "result": "no binding"}, {"measurement": "binding result", "setting": "[4]", "result": "no binding"}]}
{"binder": "dTAFII80 (other) MSLEVSNINGGNGTQLSHDKRELLCLLKLIKKYQLKSTEELLCQEANVSSVELSEISESDVQQVLGAVLGAGDANRERKHVQSPAQGHKQSAVTEANAAEELAKFIDDDSFDAQHYEQAYKELRTFVEDSLDIYKHELSMVLYPILVQIYFKILASGLREKAKEFIEKYKCDLDGYYIEGLFNLLLLSKPEELLENDLVVAMEQDKFVIRMSRDSHSLFKRHIQDRRQEVVADIVSKYLHFDTYEGMARNKLQCVATAGSHLGEAKRQDNKMRVYYGLLKEVDFQTLTTPAPAPEEEDDDPDAPDRPKKKKPKKDPLLSKKSKSDPNAPSIDRIPLPELKDSDKLLKLKALREASKRLALSKDQLPSAVFYTVLNSHQGVTCAEISDDSTMLACGFGDSSVRIWSLTPAKLRTLKDADSLRELDKESADINVRMLDDRSGEVTRSLMGHTGPVYRCAFAPEMNLLLSCSEDSTIRLWSLLTWSCVVTYRGHVYPVWDVRFAPHGYYFVSCSYDKTARLWATDSNQALRVFVGHLSDVDCVQFHPNSNYVATGSSDRTVRLWDNMTGQSVRLMTGHKGSVSSLAFSACGRYLASGSVDHNIIIWDLSNGSLVTTLLRHTSTVTTITFSRDGTVLAAAGLDNNLTLWDFHKVTEDYISNHITVSHHQDENDEDVYLMRTFPSKNSPFVSLHFTRRNLLMCVGLFKS", "values": [{"measurement": "binding result", "setting": "[5]", "result": "no binding"}]}
{"binder": "dTAFII40 (other) MSAEKSDKAKISAQIKHVPKDAQVIMSILKELNVQEYEPRVVNQLLEFTFRYVTCILDDAKVYANHARKKTIDLDDVRLATEVTLDKSFTGPLERHVLAKVADVRNSMPLPPIKPHCGLRLPPDRYCLTGVNYKLRATNQPKKMTKSAVEGRPLKTVVKPVSSANGPKRPHSVVAKQQVVTIPKPVIKFTTTTTTKTVGSSGGSGGGGGQEVKSESTGAGGDLKMEVDSDAAAVGSIAGASGSGAGSASGGGGGGGSSGVGVAVKREREEEEFEFVTN", "values": [{"measurement": "binding result", "setting": "[5]", "result": "no binding"}]}
{"binder": "hTAFII250 (other) MGPGCDLLLRTAATITAAAIMSDTDSDEDSAGGGPFSLAGFLFGNINGAGQLEGESVLDDECKKHLAGLGALGLGSLITELTANEELTGTDGALVNDEGWVRSTEDAVDYSDINEVAEDESRRYQQTMGSLQPLCHSDYDEDDYDADCEDIDCKLMPPPPPPPGPMKKDKDQDSITGVSENGEGIILPSIIAPSSLASEKVDFSSSSDSESEMGPQEATQAESEDGKLTLPLAGIMQHDATKLLPSVTELFPEFRPGKVLRFLRLFGPGKNVPSVWRSARRKRKKKHRELIQEEQIQEVECSVESEVSQKSLWNYDYAPPPPPEQCLSDDEITMMAPVESKFSQSTGDIDKVTDTKPRVAEWRYGPARLWYDMLGVPEDGSGFDYGFKLRKTEHEPVIKSRMIEEFRKLEENNGTDLLADENFLMVTQLHWEDDIIWDGEDVKHKGTKPQRASLAGWLPSSMTRNAMAYNVQQGFAATLDDDKPWYSIFPIDNEDLVYGRWEDNIIWDAQAMPRLLEPPVLTLDPNDENLILEIPDEKEEATSNSPSKESKKESSLKKSRILLGKTGVIKEEPQQNMSQPEVKDPWNLSNDEYYYPKQQGLRGTFGGNIIQHSIPAVELRQPFFPTHMGPIKLRQFHRPPLKKYSFGALSQPGPHSVQPLLKHIKKKAKMREQERQASGGGEMFFMRTPQDLTGKDGDLILAEYSEENGPLMMQVGMATKIKNYYKRKPGKDPGAPDCKYGETVYCHTSPFLGSLHPGQLLQAFENNLFRAPIYLHKMPETDFLIIRTRQGYYIRELVDIFVVGQQCPLFEVPGPNSKRANTHIRDFLQVFIYRLFWKSKDRPRRIRMEDIKKAFPSHSESSIRKRLKLCADFKRTGMDSNWWVLKSDFRLPTEEEIRAMVSPEQCCAYYSMIAAEQRLKDAGYGEKSFFAPEEENEEDFQMKIDDEVRTAPWNTTRAFIAAMKGKCLLEVTGVADPTGCGEGFSYVKIPNKPTQQKDDKEPQPVKKTVTGTDADLRRLSLKNAKQLLRKFGVPEEEIKKLSRWEVIDVVRTMSTEQARSGEGPMSKFARGSRFSVAEHQERYKEECQRIFDLQNKVLSSTEVLSTDTDSSSAEDSDFEEMGKNIENMLQNKKTSSQLSREREEQERKELQRMLLAAGSAASGNNHRDDDTASVTSLNSSATGRCLKIYRTFRDEEGKEYVRCETVRKPAVIDAYVRIRTTKDEEFIRKFALFDEQHREEMRKERRRIQEQLRRLKRNQEKEKLKGPPEKKPKKMKERPDLKLKCGACGAIGHMRTNKFCPLYYQTNAPPSNPVAMTEEQEEELEKTVIHNDNEELIKVEGTKIVLGKQLIESADEVRRKSLVLKFPKQQLPPKKKRRVGTTVHCDYLNRPHKSIHRRRTDPMVTLSSILESIINDMRDLPNTYPFHTPVNAKVVKDYYKIITRPMDLQTLRENVRKRLYPSREEFREHLELIVKNSATYNGPKHSLTQISQSMLDLCDEKLKEKEDKLARLEKAINPLLDDDDQVAFSFILDNIVTQKMMAVPDSWPFHHPVNKKFVPDYYKVIVNPMDLETIRKNISKHKYQSRESFLDDVNLILANSVKYNGPESQYTKTAQEIVNVCYQTLTEYDEHLTQLEKDICTAKEAALEEAELESLDPMTPGPYTPQPPDLYDTNTSLSMSRDASVFQDESNMSVLDIPSATPEKQVTQEGEDGDGDLADEEEGTVQQPQASVLYEDLLMSEGEDDEEDAGSDEEGDNPFSAIQLSESGSDSDVGSGGIRPKQPRMLQENTRMDMENEESMMSYEGDGGEASHGLEDSNISYGSYEEPDPKSNTQDTSFSSIGGYEVSEEEEDEEEEEQRSGPSVLSQVHLSEDEEDSEDFHSIAGDSDLDSDE", "values": [{"measurement": "binding result", "setting": "radiolabeled nTBP", "result": "no binding"}, {"measurement": "binding result", "setting": "[6]", "result": "binds"}]}
